What was measured:
[1] = tested on: T1, CCn1c(=NN=c2sc3cc(S(=O)(=O)O)ccc3n2CC)sc2cc(S(=O)(=O)O)ccc21; assay: purified protein; type: biochemical, Armoracia rusticana
T1 construct: mature HRP C1A without plant leader; E. coli BL21(DE3) periplasm, non-glycosylated, IMAC purified; hemin and CaCl2 added

[2] = substrate: CCn1c(=NN=c2sc3cc(S(=O)(=O)O)ccc3n2CC)sc2cc(S(=O)(=O)O)ccc21; assay: purified protein; type: biochemical, Armoracia rusticana; conditions: 1 mM H2O2, 50 mM KH2PO4 pH 5, 30 °C
[3] = 1 mM H2O2, 50 mM BisTris/HCl pH 7, 7% glycerol, 100 mM NaCl, 30 °C
[4] = 1 mM H2O2, 50 mM KH2PO4 pH 5, 30 °C

Molecule | Km [1, 3] | Vmax [1, 3] | kcat [1, 3] | kcat/Km [1, 3] | further results
Benchmark rHRP (HRP variant C1A) (Armoracia rusticana; N43D) | 3.29 ± 0.33 mM | 52.8 µM/min | 1.04 ± 0.05 s⁻¹ | 320 ± 40 M⁻¹ s⁻¹ | 
Benchmark rHRP (HRP variant C1A) (Armoracia rusticana; N87S) | 3.22 ± 0.59 mM | 162 µM/min | 2.1 ± 0.19 s⁻¹ | 640 ± 130 M⁻¹ s⁻¹ | 
Benchmark rHRP (HRP variant C1A) (Armoracia rusticana; N285D) | 4.37 ± 0.86 mM | 53.4 µM/min | 1.1 ± 0.12 s⁻¹ | 240 ± 50 M⁻¹ s⁻¹ | 
Benchmark rHRP (HRP variant C1A) (Armoracia rusticana; N285D/N298D/N43D/N87S) |  |  |  |  | Km [1, 4]: 0.45 ± 0.12 mM; Vmax [1, 4]: 1080 µM/min; kcat [1, 4]: 17.4 ± 1.01 s⁻¹; kcat/Km [1, 4]: 39100 ± 10500 M⁻¹ s⁻¹
Benchmark rHRP (HRP variant C1A) (Armoracia rusticana; N285D/N298D/N87S) | 9.52 ± 6.89 mM | 240 µM/min | 4.81 ± 2.37 s⁻¹ | 510 ± 440 M⁻¹ s⁻¹ | 
Benchmark rHRP (HRP variant C1A) (Armoracia rusticana; N298D) | 7.85 ± 4.98 mM | 144 µM/min | 3 ± 1.25 s⁻¹ | 380 ± 290 M⁻¹ s⁻¹ | 
Benchmark rHRP (HRP variant C1A) (Armoracia rusticana; N298D/N87S) | 4.18 ± 3.55 mM | 60 µM/min | 1.5 ± 0.58 s⁻¹ | 360 ± 340 M⁻¹ s⁻¹ | 
Benchmark rHRP (HRP variant C1A) (Armoracia rusticana) (protein, mature HRP C1A without plant leader; E. coli BL21(DE3) periplasm, non-glycosylated, IMAC purified; hemin and CaCl2 added) QLTPTFYDNSCPNVSNIVRDTIVNELRSDPRIAASILRLHFHDCFVNGCDASILLDNTTSFRTEKDAFGNANSARGFPVIDRMKAAVESACPRTVSCADLLTIAAQQSVTLAGGPSWRVPLGRRDSLQAFLDLANANLPAPFFTLPQLKDSFRNVGLNRSSDLVALSGGHTFGKNQCRFIMDRLYNFSNTGLPDPTLNTTYLQTLRGLCPLNGNLSALVDFDLRTPTIFDNKYYVNLEEQKGLIQSDQELFSSPNATDTIPLVRSFANSTQTFFNAFVEAMDRMGNITPLTGTQGQIRLNCRVVNSNS |  |  |  |  | Km [2]: 0.44 ± 0.10 mM; Vmax [2]: 120 µM/min; kcat [2]: 2.24 ± 0.11 s⁻¹; kcat/Km [2]: 5070 ± 1160 M⁻¹ s⁻¹

— article PMC6412888, “Improving the Performance of Horseradish Peroxidase by Site-Directed Mutagenesis” (International Journal of Molecular Sciences, 2019)
